Source: paper PMC9482650, “Quantitative fragmentomics allow affinity mapping of interactomes” (Nature Communications, 2022)

T1: NHERF3_3, Q5T2W1
T1 sequence (Q5T2W1 238-333, limits assumed, looked up): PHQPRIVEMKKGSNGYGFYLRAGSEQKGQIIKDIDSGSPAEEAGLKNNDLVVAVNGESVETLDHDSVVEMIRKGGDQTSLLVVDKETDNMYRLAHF

T2: CARD11, Q9BXL7
T2 sequence (Q9BXL7 662-765, limits assumed, looked up): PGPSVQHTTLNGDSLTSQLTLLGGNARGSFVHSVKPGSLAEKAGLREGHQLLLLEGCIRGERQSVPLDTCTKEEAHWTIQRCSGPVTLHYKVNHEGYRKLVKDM

T3: TJP3_3, O95049
T3 sequence (O95049 375-456, limits assumed, looked up): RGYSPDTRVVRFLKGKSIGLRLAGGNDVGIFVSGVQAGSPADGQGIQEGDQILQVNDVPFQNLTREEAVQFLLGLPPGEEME

T4: NHERF3_4, Q5T2W1
T4 sequence (Q5T2W1 373-468, limits assumed, looked up): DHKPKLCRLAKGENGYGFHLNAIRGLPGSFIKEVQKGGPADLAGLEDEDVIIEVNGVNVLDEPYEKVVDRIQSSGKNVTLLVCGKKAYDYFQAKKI

T5: SIPA1L2, Q9P2F8
T5 sequence (Q9P2F8 945-1036, limits assumed, looked up): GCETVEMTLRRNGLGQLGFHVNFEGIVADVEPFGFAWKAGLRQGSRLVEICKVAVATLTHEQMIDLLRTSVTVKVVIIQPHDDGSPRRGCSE

T6: SNTG1, Q9NSN8
T6 sequence (Q9NSN8 52-150, limits assumed, looked up): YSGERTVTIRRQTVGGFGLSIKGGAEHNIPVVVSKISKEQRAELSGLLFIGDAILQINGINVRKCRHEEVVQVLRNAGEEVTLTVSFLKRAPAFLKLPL

T7: PDZD2_2, O15018
T7 sequence (O15018 329-429, limits assumed, looked up): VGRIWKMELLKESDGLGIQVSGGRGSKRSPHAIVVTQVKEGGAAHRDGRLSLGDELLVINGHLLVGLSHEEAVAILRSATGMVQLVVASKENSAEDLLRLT

T8: HTRA4, P83105
T8 sequence (P83105 378-476, limits assumed, looked up): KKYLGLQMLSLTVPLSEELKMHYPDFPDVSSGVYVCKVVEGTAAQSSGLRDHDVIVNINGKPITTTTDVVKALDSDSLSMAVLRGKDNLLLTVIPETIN

T9: SNTA1, Q13424
T9 sequence (Q13424 82-180, limits assumed, looked up): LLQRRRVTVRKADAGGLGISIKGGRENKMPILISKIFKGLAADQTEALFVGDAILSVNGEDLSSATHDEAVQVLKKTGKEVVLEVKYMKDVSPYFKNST

T10: GRIP1_2, Q9Y3R0
T10 sequence (Q9Y3R0 145-248, limits assumed, looked up): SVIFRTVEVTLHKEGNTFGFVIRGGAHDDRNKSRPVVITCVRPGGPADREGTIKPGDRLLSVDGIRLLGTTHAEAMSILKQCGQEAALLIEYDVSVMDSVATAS

B1: EGLN1, Q9GZT9 (peptide)
chain: PSDSVGKDVF
B2: SLC26A3, P40879 (peptide)
chain: VYEVPVETKF
B3: SLC9A3, P48764 (peptide)
chain: PAALPESTHM

The binders below were run against MAGI2_5, Q86UL8 (assay: holdup assay). Details: plain residues with an end cap or a label only (N-terminal biotin on a linker: ado-ado).
Sequence of MAGI2_5, Q86UL8 (Q86UL8 915-1017): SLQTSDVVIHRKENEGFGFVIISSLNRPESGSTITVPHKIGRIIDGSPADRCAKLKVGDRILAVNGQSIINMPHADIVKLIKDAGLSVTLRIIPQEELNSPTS
Parameters: key: below the threshold = too weak to quantify, mostly under pKd 3.1 to 4
For B1, the pKd was “below the threshold”.
Work on B2 yielded a pKd of 3.71.
B3 was tested, and the pKd was “below the threshold”.

The binders below were run against SCRIB_2, Q14160 (assay: holdup assay). Details: plain residues with an end cap or a label only (N-terminal biotin on a linker: ado-ado).
Sequence of SCRIB_2, Q14160 (Q14160 857-960): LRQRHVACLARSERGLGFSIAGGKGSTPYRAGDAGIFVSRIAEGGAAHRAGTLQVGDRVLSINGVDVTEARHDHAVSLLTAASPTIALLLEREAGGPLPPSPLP
Parameters: key: below the threshold = too weak to quantify, mostly under pKd 3.1 to 4
With B1 the pKd was “below the threshold”.
B2 gave a pKd of 3.67.
With B3 the pKd was “below the threshold”.

Each binder was assayed against GRIP2_4, Q9C0E4 (assay: holdup assay). Details: plain residues with an end cap or a label only (N-terminal biotin on a linker: ado-ado).
Sequence of GRIP2_4, Q9C0E4 (Q9C0E4 446-548): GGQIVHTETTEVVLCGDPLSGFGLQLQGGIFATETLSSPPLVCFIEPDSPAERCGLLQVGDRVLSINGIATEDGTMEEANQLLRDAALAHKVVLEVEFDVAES
Parameters: key: below the threshold = too weak to quantify, mostly under pKd 3.1 to 4
In the case of B1, the pKd is reported as “below the threshold”.
With B2 the pKd was “below the threshold”.
In the case of B3, the pKd is reported as “below the threshold”.

The binders below were run against T1, NHERF3_3, Q5T2W1 (assay: holdup assay). Details: plain residues with an end cap or a label only (N-terminal biotin on a linker: ado-ado).
Parameters: key: below the threshold = too weak to quantify, mostly under pKd 3.1 to 4
For B1, the pKd was “below the threshold”.
Work on B2 yielded a pKd of 4.16.
B3 was tested, and the pKd was “below the threshold”.

The binders below were run against T2, CARD11, Q9BXL7 (assay: holdup assay). Details: plain residues with an end cap or a label only (N-terminal biotin on a linker: ado-ado).
Parameters: key: below the threshold = too weak to quantify, mostly under pKd 3.1 to 4
With B1 the pKd was “below the threshold”.
B2 was tested, and the pKd was “below the threshold”.
B3 was tested, and the pKd was “below the threshold”.

What follows are binders tested against GOPC, Q9HD26 (assay: holdup assay). Details: plain residues with an end cap or a label only (N-terminal biotin on a linker: ado-ado).
Parameters: key: below the threshold = too weak to quantify, mostly under pKd 3.1 to 4
For B1, the pKd was “below the threshold”.
With B2 the pKd was “below the threshold”.
For B3, the pKd was “below the threshold”.

These binders were tested against Inadl_5, Q8NI35 (assay: holdup assay). Details: plain residues with an end cap or a label only (N-terminal biotin on a linker: ado-ado).
Sequence of Inadl_5, Q8NI35 (Q8NI35 673-780): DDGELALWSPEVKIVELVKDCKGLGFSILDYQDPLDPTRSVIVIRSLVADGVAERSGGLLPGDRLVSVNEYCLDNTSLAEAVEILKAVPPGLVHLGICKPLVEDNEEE
Parameters: key: below the threshold = too weak to quantify, mostly under pKd 3.1 to 4
In the case of B1, the pKd is reported as “below the threshold”.
In the case of B2, the pKd is reported as “below the threshold”.
B3 was tested, and the pKd was “below the threshold”.

These binders were tested against MAST1, Q9Y2H9 (assay: holdup assay). Details: plain residues with an end cap or a label only (N-terminal biotin on a linker: ado-ado).
Sequence of MAST1, Q9Y2H9 (Q9Y2H9 962-1065): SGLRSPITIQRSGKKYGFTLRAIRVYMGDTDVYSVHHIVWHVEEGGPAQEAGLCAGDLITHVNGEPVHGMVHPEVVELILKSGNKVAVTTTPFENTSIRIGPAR
Parameters: key: below the threshold = too weak to quantify, mostly under pKd 3.1 to 4
With B1 the pKd was “below the threshold”.
B2 was tested, and the pKd was 5.07.
B3 was tested, and the pKd was 4.63.

The binders below were run against CASK, O14936 (assay: holdup assay). Details: plain residues with an end cap or a label only (N-terminal biotin on a linker: ado-ado).
Sequence of CASK, O14936 (O14936 487-570): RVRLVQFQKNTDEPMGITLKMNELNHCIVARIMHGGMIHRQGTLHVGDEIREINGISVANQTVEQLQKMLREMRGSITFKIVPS
Parameters: key: below the threshold = too weak to quantify, mostly under pKd 3.1 to 4
B1 was tested, and the pKd was “below the threshold”.
For B2, the pKd was “below the threshold”.
B3 was tested, and the pKd was “below the threshold”.

Each binder was assayed against FRMPD2_1, Q68DX3 (assay: holdup assay). Details: plain residues with an end cap or a label only (N-terminal biotin on a linker: ado-ado).
Sequence of FRMPD2_1, Q68DX3 (Q68DX3 770-861): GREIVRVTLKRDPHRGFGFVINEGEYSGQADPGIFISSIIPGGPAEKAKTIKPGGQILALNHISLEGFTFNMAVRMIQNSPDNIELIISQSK
Parameters: key: below the threshold = too weak to quantify, mostly under pKd 3.1 to 4
B1 was tested, and the pKd was “below the threshold”.
For B2, the pKd was “below the threshold”.
B3 was tested, and the pKd was “below the threshold”.

What follows are binders tested against GRIP2_3, Q9C0E4 (assay: holdup assay). Details: plain residues with an end cap or a label only (N-terminal biotin on a linker: ado-ado).
Sequence of GRIP2_3, Q9C0E4 (Q9C0E4 238-339): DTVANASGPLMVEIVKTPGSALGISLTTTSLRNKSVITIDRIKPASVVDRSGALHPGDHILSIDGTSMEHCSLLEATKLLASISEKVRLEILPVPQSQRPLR
Parameters: key: below the threshold = too weak to quantify, mostly under pKd 3.1 to 4
In the case of B1, the pKd is reported as “below the threshold”.
B2 was tested, and the pKd was “below the threshold”.
With B3 the pKd was “below the threshold”.

What follows are binders tested against T3, TJP3_3, O95049 (assay: holdup assay). Details: plain residues with an end cap or a label only (N-terminal biotin on a linker: ado-ado).
Parameters: key: below the threshold = too weak to quantify, mostly under pKd 3.1 to 4
B1 was tested, and the pKd was “below the threshold”.
With B2 the pKd was “below the threshold”.
For B3, the pKd was “below the threshold”.

What follows are binders tested against T4, NHERF3_4, Q5T2W1 (assay: holdup assay). Details: plain residues with an end cap or a label only (N-terminal biotin on a linker: ado-ado).
Parameters: key: below the threshold = too weak to quantify, mostly under pKd 3.1 to 4
In the case of B1, the pKd is reported as “below the threshold”.
B2 showed a pKd of 4.15.
B3 was tested, and the pKd was 3.52.

The binders below were run against LDB3, O75112 (assay: holdup assay). Details: plain residues with an end cap or a label only (N-terminal biotin on a linker: ado-ado).
Sequence of LDB3, O75112 (O75112 1-94): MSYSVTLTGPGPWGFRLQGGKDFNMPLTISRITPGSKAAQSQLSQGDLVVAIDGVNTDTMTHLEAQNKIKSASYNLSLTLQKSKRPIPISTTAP
Parameters: key: below the threshold = too weak to quantify, mostly under pKd 3.1 to 4
In the case of B1, the pKd is reported as “below the threshold”.
B2 showed a pKd of 3.55.
In the case of B3, the pKd is reported as “below the threshold”.

These binders were tested against MAGI2_3, Q86UL8 (assay: holdup assay). Details: plain residues with an end cap or a label only (N-terminal biotin on a linker: ado-ado).
Sequence of MAGI2_3, Q86UL8 (Q86UL8 600-682): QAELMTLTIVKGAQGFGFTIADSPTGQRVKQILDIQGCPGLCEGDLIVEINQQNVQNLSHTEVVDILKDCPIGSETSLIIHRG
Parameters: key: below the threshold = too weak to quantify, mostly under pKd 3.1 to 4
In the case of B1, the pKd is reported as “below the threshold”.
In the case of B2, the pKd is reported as “below the threshold”.
For B3, the pKd was “below the threshold”.

The binders below were run against T5, SIPA1L2, Q9P2F8 (assay: holdup assay). Details: plain residues with an end cap or a label only (N-terminal biotin on a linker: ado-ado).
Parameters: key: below the threshold = too weak to quantify, mostly under pKd 3.1 to 4
In the case of B1, the pKd is reported as “below the threshold”.
B2 was tested, and the pKd was “below the threshold”.
In the case of B3, the pKd is reported as “below the threshold”.

Each binder was assayed against MAGI2_4, Q86UL8 (assay: holdup assay). Details: plain residues with an end cap or a label only (N-terminal biotin on a linker: ado-ado).
Sequence of MAGI2_4, Q86UL8 (Q86UL8 772-865): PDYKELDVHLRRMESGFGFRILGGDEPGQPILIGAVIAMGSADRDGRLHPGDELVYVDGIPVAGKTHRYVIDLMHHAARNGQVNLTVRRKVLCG
Parameters: key: below the threshold = too weak to quantify, mostly under pKd 3.1 to 4
For B1, the pKd was “below the threshold”.
For B2, the pKd was “below the threshold”.
B3 was tested, and the pKd was “below the threshold”.

The binders below were run against DLG2_2, Q15700 (assay: holdup assay). Details: plain residues with an end cap or a label only (N-terminal biotin on a linker: ado-ado).
Sequence of DLG2_2, Q15700 (Q15700 189-283): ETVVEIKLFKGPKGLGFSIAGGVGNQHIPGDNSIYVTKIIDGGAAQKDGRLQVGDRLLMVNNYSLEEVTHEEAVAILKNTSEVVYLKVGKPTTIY
Parameters: key: below the threshold = too weak to quantify, mostly under pKd 3.1 to 4
With B1 the pKd was “below the threshold”.
For B2, the pKd was “below the threshold”.
For B3, the pKd was “below the threshold”.

These binders were tested against T6, SNTG1, Q9NSN8 (assay: holdup assay). Details: plain residues with an end cap or a label only (N-terminal biotin on a linker: ado-ado).
Parameters: key: below the threshold = too weak to quantify, mostly under pKd 3.1 to 4
With B1 the pKd was “below the threshold”.
For B2, the pKd was “below the threshold”.
For B3, the pKd was “below the threshold”.

These binders were tested against PICK1, Q9NRD5 (assay: holdup assay). Details: plain residues with an end cap or a label only (N-terminal biotin on a linker: ado-ado).
Sequence of PICK1, Q9NRD5 (Q9NRD5 17-115): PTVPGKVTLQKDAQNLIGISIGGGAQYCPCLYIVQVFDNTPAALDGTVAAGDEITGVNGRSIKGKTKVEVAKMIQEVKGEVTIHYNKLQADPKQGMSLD
Parameters: key: below the threshold = too weak to quantify, mostly under pKd 3.1 to 4
For B1, the pKd was “below the threshold”.
B2 was tested, and the pKd was 4.19.
For B3, the pKd was 4.11.

The binders below were run against T7, PDZD2_2, O15018 (assay: holdup assay). Details: plain residues with an end cap or a label only (N-terminal biotin on a linker: ado-ado).
Parameters: key: below the threshold = too weak to quantify, mostly under pKd 3.1 to 4
With B1 the pKd was 3.62.
Work on B2 yielded a pKd of 3.72.
In the case of B3, the pKd is reported as “below the threshold”.

These binders were tested against T8, HTRA4, P83105 (assay: holdup assay). Details: plain residues with an end cap or a label only (N-terminal biotin on a linker: ado-ado).
Parameters: key: below the threshold = too weak to quantify, mostly under pKd 3.1 to 4
In the case of B1, the pKd is reported as “below the threshold”.
In the case of B2, the pKd is reported as “below the threshold”.
B3 was tested, and the pKd was 3.9.

Each binder was assayed against PTPN3, P26045 (assay: holdup assay). Details: plain residues with an end cap or a label only (N-terminal biotin on a linker: ado-ado).
Sequence of PTPN3, P26045 (P26045 505-587): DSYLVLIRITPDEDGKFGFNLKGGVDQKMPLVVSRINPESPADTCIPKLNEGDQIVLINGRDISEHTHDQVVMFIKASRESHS
Parameters: key: below the threshold = too weak to quantify, mostly under pKd 3.1 to 4
B1 was tested, and the pKd was “below the threshold”.
With B2 the pKd was 4.84.
B3 was tested, and the pKd was “below the threshold”.

The binders below were run against LNX1_3, Q8TBB1 (assay: holdup assay). Details: plain residues with an end cap or a label only (N-terminal biotin on a linker: ado-ado).
Sequence of LNX1_3, Q8TBB1 (Q8TBB1 500-596): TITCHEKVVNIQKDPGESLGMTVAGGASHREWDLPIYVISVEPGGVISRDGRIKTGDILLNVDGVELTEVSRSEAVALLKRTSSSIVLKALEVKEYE
Parameters: key: below the threshold = too weak to quantify, mostly under pKd 3.1 to 4
For B1, the pKd was “below the threshold”.
In the case of B2, the pKd is reported as “below the threshold”.
With B3 the pKd was “below the threshold”.

Each binder was assayed against Inadl_6, Q8NI35 (assay: holdup assay). Details: plain residues with an end cap or a label only (N-terminal biotin on a linker: ado-ado).
Sequence of Inadl_6, Q8NI35 (Q8NI35 1058-1167): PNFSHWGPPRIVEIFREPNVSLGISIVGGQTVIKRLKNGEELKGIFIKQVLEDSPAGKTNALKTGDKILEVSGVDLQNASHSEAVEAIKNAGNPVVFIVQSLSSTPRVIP
Parameters: key: below the threshold = too weak to quantify, mostly under pKd 3.1 to 4
B1 was tested, and the pKd was “below the threshold”.
In the case of B2, the pKd is reported as “below the threshold”.
With B3 the pKd was “below the threshold”.

Each binder was assayed against T9, SNTA1, Q13424 (assay: holdup assay). Details: plain residues with an end cap or a label only (N-terminal biotin on a linker: ado-ado).
Parameters: key: below the threshold = too weak to quantify, mostly under pKd 3.1 to 4
In the case of B1, the pKd is reported as “below the threshold”.
For B2, the pKd was “below the threshold”.
In the case of B3, the pKd is reported as “below the threshold”.

What follows are binders tested against NHERF4_2, Q86UT5 (assay: holdup assay). Details: plain residues with an end cap or a label only (N-terminal biotin on a linker: ado-ado).
Sequence of NHERF4_2, Q86UT5 (Q86UT5 220-308): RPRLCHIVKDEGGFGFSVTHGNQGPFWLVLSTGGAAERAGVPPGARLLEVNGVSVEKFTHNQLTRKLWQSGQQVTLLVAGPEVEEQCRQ
Parameters: key: below the threshold = too weak to quantify, mostly under pKd 3.1 to 4
B1 was tested, and the pKd was “below the threshold”.
In the case of B2, the pKd is reported as “below the threshold”.
For B3, the pKd was “below the threshold”.

The binders below were run against T10, GRIP1_2, Q9Y3R0 (assay: holdup assay). Details: plain residues with an end cap or a label only (N-terminal biotin on a linker: ado-ado).
Parameters: key: below the threshold = too weak to quantify, mostly under pKd 3.1 to 4
For B1, the pKd was “below the threshold”.
In the case of B2, the pKd is reported as “below the threshold”.
In the case of B3, the pKd is reported as “below the threshold”.

What follows are binders tested against HTRA1, Q92743 (assay: holdup assay). Details: plain residues with an end cap or a label only (N-terminal biotin on a linker: ado-ado).
Sequence of HTRA1, Q92743 (Q92743 360-477): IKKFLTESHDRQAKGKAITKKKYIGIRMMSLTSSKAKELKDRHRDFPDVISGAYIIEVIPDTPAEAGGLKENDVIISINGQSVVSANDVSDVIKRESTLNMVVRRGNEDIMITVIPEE
Parameters: key: below the threshold = too weak to quantify, mostly under pKd 3.1 to 4
Work on B1 yielded a pKd of 3.77.
With B2 the pKd was “below the threshold”.
B3 was tested, and the pKd was “below the threshold”.
